Experimental data: patent publication US20110306546A1, “COMPOSITIONS FOR INCREASING HAIR GROWTH AND DECREASING HAIR LOSS” (ALVI ARMANI GENOMICS INC., priority 2010, published 2011)

System: Hair follicles (HF)
Test: Hair follicle (HF) explant growth assay
Assay type: cell-based, human
Conditions: HF elongation after 7-8 days; 20 ng/ml of each growth factor, hypoxanthine 2 μM; mean of 6-8 independent experiments
Protocol: Hair follicles (HF) were extracted from the occipital area of 6-8 individuals with hair loss. The HFs were processed to equivalent lengths and cultured in William's E medium supplemented with 100 units/ml penicillin G, 100 μg/ml streptomycin, 0.25 μg/ml amphotericin B, […], 1 ng/ml hydrocortisone; basic medium or control medium or basic medium supplemented with 20 ng/ml of each of IGF-1, FGF-2, PDGF, Wnt-3A (Wnt), Noggin (Nog), Ephrin A3 (Eph), SHH and BMP-6 as well as hypoxanthine (Hyx) at 2 μM final concentration. The “GF10 cocktail” or “GF10” includes all nine growth factors and hypoxanthine while the “GF7 cocktail” or “GF7” contains six growth factors (all growth factors of GF10 except for FGF-10, Eph and SHH) and hypoxanthine. Growth promotion was measured as elongation of the HF at the end of 7-8 days. All growth factors and hypoxanthine promoted growth individually and in combination (FIG. 1 and Table 1).

Row | Molecule | Increase in growth (% control) Mean [% control]
1 | Nog: secreted polypeptide noggin, binds and inactivates TGF-beta superfamily signaling proteins (protein, UniProt Q13253 28-232, looked up) Noggin: QHYLHIRPAPSDNLPLVDLIEHPDPIFDPKEKDLNETLLRSLLGGHYDPGFMATSPPEDRPGGGGGAAGGAEDLAELDQLLRQRPSGAMPSEIKGLEFSEGLAQGKKQRLSKKLRRKLQMWLWSQTFCPVLYAWNDLGSRFWPRYVKVGSCFSKRSCSVPEGMVCKPSKSVHLTVLRWRCQRRGGQRCGWIPIQYPIISECKCSC | 51.45
2 | FGF10: FGF-10, also known as keratinocyte growth factor (KGF2) (protein, UniProt O15520 38-208, looked up) Fibroblast growth factor 10: QALGQDMVSPEATNSSSSSFSSPSSAGRHVRSYNHLQGDVRWRKLFSFTKYFLKIEKNGKVSGTKKENCPYSILEITSVEIGVVAVKAINSNYYLAMNKKGKLYGSKEFNNDCKLKERIEENGYNTYASFNWQHNGRQMYVALNGKGAPRRGQKTRRKNTSAHFLPMVVHS | 48.55
3 | BMP-6: bone morphogenesis protein-6 (protein, UniProt P22004 375-513, looked up) Bone morphogenetic protein 6: SASSRRRQQSRNRSTQSQDVARVSSASDYNSSELKTACRKHELYVSFQDLGWQDWIIAPKGYAANYCDGECSFPLNAHMNATNHAIVQTLVHLMNPEYVPKPCCAPTKLNAISVLYFDDNSNVILKKYRNMVVRACGCH | 46.44
4 | Eph: member of the Ephrin family, binds to the Eph receptor (protein, UniProt P52797 23-214, looked up) Ephrin-A3: QGPGGALGNRHAVYWNSSNQHLRREGYTVQVNVNDYLDIYCPHYNSSGVGPGAGPGPGGGAEQYVLYMVSRNGYRTCNASQGFKRWECNRPHAPHSPIKFSEKFQRYSAFSLGYEFHAGHEYYYISTPTHNLHWKCLRMKVFVCCASTSHSGEKPVPTLPQFTMGPNVKINVLEDFEGENPQVPKLEKSISG | 57.61
5 | Wnt: Wnt-3a growth factor (protein, UniProt P56704 19-352, looked up) Protein Wnt-3a: SYPIWWSLAVGPQYSSLGSQPILCASIPGLVPKQLRFCRNYVEIMPSVAEGIKIGIQECQHQFRGRRWNCTTVHDSLAIFGPVLDKATRESAFVHAIASAGVAFAVTRSCAEGTAAICGCSSRHQGSPGKGWKWGGCSEDIEFGGMVSREFADARENRPDARSAMNRHNNEAGRQAIASHMHLKCKCHGLSGSCEVKTCWWSQPDFRAIGDFLKDKYDSASEMVVEKHRESRGWVETLRPRYTYFKVPTERDLVYYEASPNFCEPNPETGSFGTRDRTCNVSSHGIDGCDLLCCGRGHNARAERRREKCRCVFHWCCYVSCQECTRVYDVHTCK | 104.817
